# Patent US11149086B2, “KV1.3 binding immunoglobulins” (Ablynx N.V., priority 2014, dated 2021)
# B1: A019400003: monovalent anti-Kv1.3 Nanobody, family 1 (protein)
# VHH: EVQLVESGGGLVQAGGSLSLSCTASGGTFRNFGMGWFRQAQGKEREFVAAISRTGGHTYYQDSVKGRFTISKDNAKNILSLQMNSLKPEDTAVYYCAARFRFGDGTYYYQRAFYDFWGQGTQVTVSS
# modifications: Nanobody sequence
# Tests used:
# cyno Kv1.3 = assay: 125I-margatoxin competition on cyno Kv1.3 expressing CHO cells; type: binding, cynomolgus; settings: 150 pM I125 margatoxin
# Procedure: Periplasmic extracts were screened in a radioligand 125I-margatoxin competition assay to assess the blocking capacity of the expressed Nanobodies. Cynomolgous Kv1.3 was presented on CHO cells overexpressing Kv1.3.
# In order to detect binding of margatoxin to cell expressed Kv1.3, a radiolabeled toxin was used (125I-margatoxin; MgTX; Perkin Elmer, NEX083). To setup the assay, first a titration series of the radiolabeled 125I-margatoxin was performed on the CHO-cyKv1.3 and parental CHO K1 cells. To have maximum sensitivity of the screening, the EC30 concentration (150 pM) was chosen for competition during screening and later on, also characterization.
# In brief, 35 μl of periplasmic extract was added to 150 pM labeled margatoxin (50 μl) and 40000 CHO-cyKv1.3 cells that were seeded the day before in a poly-D-lysine coated 96-well plate (BD Biocoat, Cat354620) in a total of 200 μl. After two hours incubation at RT, cells were washed two times before read out was performed with 100 μl/well MicroScint-20 (Perkin Elmer) on a TopCount device (Perkin Elmer).
# As reference compounds, a dilution series of ShK-1aJ (Smartox, #08SHK001) and unlabeled margatoxin (Alamone labs, Cat RTM-325) were included. […] For each sample the percentage block was determined using the control samples to determine the assay window. […]
# human Kv1.3 = biological target: T1, human Kv1.3 (Homo sapiens, UniProt P22001); assay: FACS competition with FAM-labeled ShK on HEK293H human Kv1.3 cells; type: binding
# T1 construct: cell lines stably expressing the full length human Kv1.3 channel
# Procedure: To evaluate the competition between the toxin ShK and the Nanobodies for binding to Kv1.3, a FACS competition experiment was performed using HEK293H cells overexpressing human Kv1.3 and the parental HEK293H cells as background cell line. As detection reagent, FAM-labeled ShK was used (6-FAM-AEEAc-Stichodactyla helianthus Neurotoxin (ShK) (Bachem, H-6088, 1046522, PRT00000366/01/01)). To setup the assay, first a titration series of the labeled Shk-FAM was performed on the HEK293H Kv1.3 cells in order to determine the EC50 value for binding.
# In brief, a dilution series of ShK or Nanobody were added together with the labeled toxin to 200 000 cells in a 96-well plate. After 90 minutes incubation at 4° C., cells were washed three times before read out was performed on a FACS Canto (Becton Dickinson). First a gate was set on the intact cells as determined from the scatter profile. Next, dead cells were gated out by their fluorescence profile from the TOPRO stain (5 nM, Molecular probes, T3605). […] The percentage of inhibition for Nanobodies blocking the interaction of ShK to human Kv1.3 is depicted in Table B-11.
# T1 sequence (P22001 whole entry): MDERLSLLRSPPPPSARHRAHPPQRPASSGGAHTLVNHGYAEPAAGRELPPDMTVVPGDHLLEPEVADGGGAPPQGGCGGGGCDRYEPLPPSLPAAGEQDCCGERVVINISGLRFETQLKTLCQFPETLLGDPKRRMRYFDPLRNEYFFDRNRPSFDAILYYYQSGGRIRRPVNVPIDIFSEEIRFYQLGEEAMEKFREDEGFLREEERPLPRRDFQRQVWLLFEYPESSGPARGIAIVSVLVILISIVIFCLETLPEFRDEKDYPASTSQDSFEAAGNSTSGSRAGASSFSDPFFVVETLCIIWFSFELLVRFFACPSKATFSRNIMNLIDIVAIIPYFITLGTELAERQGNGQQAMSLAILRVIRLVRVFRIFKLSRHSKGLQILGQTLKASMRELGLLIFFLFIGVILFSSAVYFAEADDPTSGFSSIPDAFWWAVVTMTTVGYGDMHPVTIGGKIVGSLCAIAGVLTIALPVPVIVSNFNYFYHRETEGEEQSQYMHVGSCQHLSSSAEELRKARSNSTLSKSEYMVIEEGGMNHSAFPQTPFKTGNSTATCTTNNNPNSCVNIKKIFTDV
# Chain of cyno Kv1.3 (as listed by the source): as the sequence (P22001 whole entry) above, with R4H, P23A, H38P, R47P, T269P, E275D, S284A, R285A, S497A counted along it
molecule,measurement,setting,value
B1,"block of I125 margatoxin binding, in words",cyno Kv1.3,completely block
same,"blocking of FAM labeled ShK binding to Kv1.3, in words",human Kv1.3; 70 nM ShK-FAM,only partially blocked
same,% inhibition of ShK-Fam binding,"human Kv1.3; 70 nM ShK-Fam (100x EC50), HEK 293H hu Kv1.3 cells",87.13%
